Data as given in the supplement of paper PMC7125110.
± gives the standard error. Variants at the floor of the assay were thinned out.

B1: glmS ribozyme (parent)
chain: AUAAAAGCGCCAGAACUACAGAAAUGUAGUUGACGAGGAGGAGGUUUAUCGAAUUUUCGGCGGAUGCCUCCAAA

Variants of: B1
Experiment: self-cleavage kobs at 2500 uM GlcN6P; higher = faster cleavage; RNA array
Conditions: with glucosamine-6-phosphate
Outline: (§1)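 A hybridised Cy3 probe tracked barcoded ribozyme variants, transcribed in situ by E. coli RNA polymerase on sequenced MiSeq chips, at 37 °C. The variants received 40 μM to 10 mM glucosamine-6-phosphate in HEPES/KCl/Mg(OAc)2 buffer. kobs came from decay fits and kcat and KM from weighted Michaelis–Menten fits.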

| Variant | self-cleavage kobs at 2500 uM GlcN6P [s⁻¹] |
| --- | --- |
| G35C C68U C71A | < 1e-05 |
| G38A C58A C70G | 6.46e-05 ± 1.7e-05 |
| G40U C50A U55C | < 1e-05 |
| C34A A48C A64U | < 1e-05 |
| U45A U47G U54G U56C | 0.00285 ± 0.00062 |
| A36U G38A U47C | < 1e-05 |
| G38C U46G G59A | < 1e-05 |
| A33C G37A G40C A42C | < 1e-05 |
| G37A A53U G66U | 8.93e-05 ± 3.4e-05 |
| G38A C50G U69G | 6.3e-05 ± 1.7e-05 |
| G32U A42C U54A | < 1e-05 |
| A39G G40U U56A | 0.000452 ± 0.00011 |
| C34G U46A U47A U65C C68G | < 1e-05 |
| G32U U55A C70U | 0.000404 ± 8e-05 |
| U45A A52U C71U | 0.000244 ± 9.4e-05 |
| A33G U47A A53G C70U | < 1e-05 |
| C34U C58U G60A | < 1e-05 |
| A39G G44A | 0.00105 ± 0.00035 |
| U45G C50U U55A | < 1e-05 |
| G37U U56C G60C C61G | < 1e-05 |
| U31G G38U A42U | < 1e-05 |
| G40C C70G C71U | 7.87e-05 ± 1.6e-05 |
| G32U U45C | 1.98e-05 ± 7.1e-06 |
| A36U G40U A64C | < 1e-05 |
| G35C U46A C67G | < 1e-05 |
| A36G G40C G60C | < 1e-05 |
| G35C G40C C70U | < 1e-05 |

| Variant | self-cleavage kobs at 2500 uM GlcN6P [s⁻¹] |
| --- | --- |
| G37U G44C U57C C67A | < 1e-05 |
| U31C G43C U65G | < 1e-05 |
| G40C U47G G51A | < 1e-05 |
| G37A A39C G63U | < 1e-05 |
| C34A A36G G38U U69G | 4.35e-05 ± 2e-05 |
| G37U U56C C67A | < 1e-05 |
| G43U U56C C67G | < 1e-05 |
| G35C G38C A48U | < 1e-05 |
| A39U G41U C50G | < 1e-05 |
| U45G A48C | 5.95e-05 ± 2.2e-05 |
| U31G A39G U57A A64G | 5.58e-05 ± 2e-05 |
| A33G G37A A52U | < 1e-05 |
| A39C C67G C70A | < 1e-05 |
| G35A A48C G51A U56G | < 1e-05 |
| C34U C67G C68G | 0.000147 ± 3.9e-05 |
| G38A A39C C50G C68A | 5.88e-05 ± 2.8e-05 |
| G38U A48G U55C C67G | < 1e-05 |
| U31G G40U G60A | < 1e-05 |
| A39G G44U A53G | 0.000722 ± 0.00021 |
| G32U A36U G37C U47G A52C C67G | < 1e-05 |
| C34A G43A U54G | < 1e-05 |
| A39C U54A U55C | 0.00249 ± 0.00052 |
| G35A A42U G44A | < 1e-05 |
| G44C C70A C71U | < 1e-05 |
| A33C G38C A48U | < 1e-05 |
| C34A G41A C50G | < 1e-05 |
| G40C G60A G66A | < 1e-05 |

| Variant | self-cleavage kobs at 2500 uM GlcN6P [s⁻¹] |
| --- | --- |
| G38C C50A U65A | < 1e-05 |
| U31C G32U U54C C58A | 0.000137 ± 4.2e-05 |
| G37U G40U U55C | < 1e-05 |
| U45C U47G | 0.000218 ± 9.6e-05 |
| A33C A36U G37A U47C | < 1e-05 |
| U31G G41A U54C | 6.89e-05 ± 2.6e-05 |
| C34A G35U G59U | < 1e-05 |
| U31G U55A C67A | 0.00299 ± 0.00085 |
| A36U G44A A48C U57C | < 1e-05 |
| U31G G63C | < 1e-05 |
| C34U C50G C67A | 8.66e-05 ± 2.1e-05 |
| G38A G41A C50G C61U | < 1e-05 |
| G37C G62U C71G | < 1e-05 |
| G32C A33C U47C A64C | < 1e-05 |
| G38A A42G C68G | < 1e-05 |
| A39G A42C G43A | < 1e-05 |
| U45G U47A | 0.00816 ± 0.0022 |
| G35C C50A C67G | < 1e-05 |
| G43C G51C U65A | < 1e-05 |
| G41A A52C C67G C71A | < 1e-05 |
| U45C A48C U65G C70G | < 1e-05 |
| U31G A52C C58G | < 1e-05 |
| G40U G51U G59A | < 1e-05 |
| G35A A36U G44A A52G C61G C67A | < 1e-05 |
| A36G G43A A48U A52G | < 1e-05 |
| C34G G38A C70G | 5.16e-05 ± 2.4e-05 |

Variants of: B1
Experiment: self-cleavage kobs at 10000 uM GlcN6P; higher = faster cleavage; RNA array
Conditions: with glucosamine-6-phosphate
Outline: as §1

| Variant | self-cleavage kobs at 10000 uM GlcN6P [s⁻¹] |
| --- | --- |
| A36U G38A U47C | < 1e-05 |
| A39G G40U U56A | 0.00056 ± 0.00013 |
| C34G U46A U47A U65C C68G | < 1e-05 |
| A39G G44A | 0.000926 ± 0.00033 |
| G32U U45C | 4.42e-05 ± 5.9e-06 |
| U45G A48C | 0.000117 ± 2.2e-05 |
| A39G G44U A53G | 0.000935 ± 0.00017 |
| A33C G38C A48U | < 1e-05 |
